The values below come from patent US20180009906A1 (CURED, published 2018).

The target of experiment [1] is T1, serine hydroxymethyltransferase Δ2-28 mutant (Escherichia coli, UniProt A7ZPZ4 29-417).
T1 construct: Expressed in Escherichia coli cells and 293T cells; tested in Western blotting of cell lysate; not shown: Myc-tag (40aa) at the C-terminus
T1 sequence: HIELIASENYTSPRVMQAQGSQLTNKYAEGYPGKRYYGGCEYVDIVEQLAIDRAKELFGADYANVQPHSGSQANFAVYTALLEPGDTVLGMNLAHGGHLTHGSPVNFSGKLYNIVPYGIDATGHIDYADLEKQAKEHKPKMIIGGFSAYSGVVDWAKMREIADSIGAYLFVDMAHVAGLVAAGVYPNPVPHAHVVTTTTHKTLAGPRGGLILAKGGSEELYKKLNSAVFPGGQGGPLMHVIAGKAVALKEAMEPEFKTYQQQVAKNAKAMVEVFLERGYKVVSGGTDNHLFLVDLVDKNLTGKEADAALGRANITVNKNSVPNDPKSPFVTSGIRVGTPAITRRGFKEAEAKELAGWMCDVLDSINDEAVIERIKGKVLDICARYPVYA
Put plainly: Western blot of cell lysates (E. coli and 293T expression).

Experiment [2] addresses T2, full length serine hydroxymethyltransferase (SEQ ID NO: 74), c-Myc tagged at the C-terminus (Escherichia coli, UniProt A7ZPZ4 1-417).
T2 construct: Expressed in Escherichia coli (DH5α); tested denatured in Western blotting of cell lysate; also called SHMT; full length: wild-type
T2 sequence: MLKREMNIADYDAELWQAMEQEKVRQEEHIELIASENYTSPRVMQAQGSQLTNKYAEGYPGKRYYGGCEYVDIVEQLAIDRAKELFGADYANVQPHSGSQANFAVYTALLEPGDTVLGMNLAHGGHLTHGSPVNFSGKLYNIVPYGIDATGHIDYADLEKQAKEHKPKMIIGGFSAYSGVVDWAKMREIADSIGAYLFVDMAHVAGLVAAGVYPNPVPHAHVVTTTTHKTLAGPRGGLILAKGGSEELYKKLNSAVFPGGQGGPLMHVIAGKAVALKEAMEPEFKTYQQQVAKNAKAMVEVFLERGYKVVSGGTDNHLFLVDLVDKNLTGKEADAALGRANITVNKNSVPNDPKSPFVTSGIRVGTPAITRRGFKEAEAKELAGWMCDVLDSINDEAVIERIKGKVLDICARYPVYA
Put plainly: Western blot of c-Myc-tagged full-length SHMT expressed in E. coli (DH5α). In general terms: In western blotting, separated proteins are transferred to a membrane and probed.

B1: W27 monoclonal IgA antibody (antibody, V domains shown)
VH: EVQLQQSGSELVKSGASVKLSCTVSGFNFTDYYIHWVRQRTEQGLEWIGRIDPENDETTYAPKFQGKATMTADTSSNTAYLQLTSLTSEDTAVYYCARSTVLDYWGHGTTLTVSS
VL: DVLMTQTPLSLPVSLGDQASISCRASQSIVHTNGNTYLEWYLQKPGQSPKLLIYKVSNRFSGVPDRFSGSGSGTDFILKISRVEAEDLGVYYCFQGSHVPPTFGGGTKLEVKR
notes: Mouse IgA from a hybridoma of small-intestinal lamina propria B cells of wild-type C57BL/6 mice, partially purified
Turning to B1, in experiment [1], the binding result is on record as “no binding”.

B2: W34 monoclonal IgA antibody (antibody, V domains shown)
VH: DVQLQESGPGMVKPSQSLSLTCTVTGYSITSGYDWHWIRHFPGNKLEWMGYISYSGSTDYNPALRSRISITRDTSTNHFFLKVNSVTTEDTATYYCARDGYGSNYVMAYWGQGTSVTVSS
VL: QIVLTQSPAIMSASPGEKVTITCSASSSVHYIHWFQLKPGTSPKLWIYSTSNLASGVPARFSGSGSGTSYSLTISRMEAEDAATYYCQQRSSYPLTFGAGTKLELKR
notes: Mouse IgA from hybridoma
As for B2, the binding result in experiment [2] is on record as “binds”.

B3: W11 monoclonal IgA antibody (antibody, V domains shown)
VH: QVQLKQSGPGLVQPSQSLSITCTVSGFSLTNYGVHWIRQSPGKGLEWLGVIWSGGRIDYNAAFISRLNINKDNSKSQVFFKMNSLQTDDTAIYYCARTYDGYYFFQYWGQGTPLTVSS
VL: DVVMTQTPLSLPVSLGDEASISCRSSRSLIHSNGHTFLDWYLQKPGQSPKLLIYKVSNRFSGVPDRFSGSGSGTDFTLKISRVEAEDLGVYFCAQSTHAPLLTFGAGTKLELKR
notes: Mouse IgA from hybridoma
Consider B3, for which, in experiment [2], the binding result is recorded as “binds”.
